# Laboratory results: US20230157952A1, “METHOD FOR IMPROVING THE STABILITY OF A PHARMACEUTICAL COMPOSITION COMPRISING A HIGH PENETRATION DRUG, AND THE PHARMACEUTICAL COMPOSITION OBTAINED THEREFROM” (Techfields Inc., priority 2020, published 2023)
# Non-standard residues stand in square brackets, D forms with d. *: point of attachment. Arg(NO2) = N=C(NCCC[C@H](N)C(=O)O)N[N+](=O)[O-]; OiPr = CC(C)O*
# Legend:
# [1] = Stability of the pure HPDs (dry solid) at 25° C./RH 60%; format: physicochemical; details: pure HPD, 25° C./RH 60%
# [2] = Effect of pH value on the stability of the solution (purity); format: physicochemical; details: for Purity(%) at day 1 / Purity(%) at day 30 / Purity(%) at day 90 / Purity(%) at day 180 / Purity(%) at day 360: 5% solution
# [3] = Effect of concentration on the stability of the solution (purity over time); details: 1 equivalent sodium acetate in 50% ethanol at 25° C.
# [4] = 25% ethanol (after multiple recrystalization), pH 3.7, 25° C.
# [5] = 25% ethanol with 0.5 equivalent sodium acetate, pH 3.7, 25° C.
# [6] = 25% ethanol with 1 equivalent sodium acetate, pH 4.6, 25° C.
# [7] = 25% ethanol with 1.5 equivalent sodium acetate, pH 5.6, 25° C.
# [8] = 25% ethanol with HCl, pH 1.0, 25° C.
# [9] = 25% ethanol with HCl, pH 2.0, 25° C.
# [10] = 25% ethanol with NaOH, pH 7, 25° C.
# [11] = 25% ethanol with NaOH, pH 8, 25° C.
compound,measurement,setting,value
"CCN(CC)CCOC(=O)[C@@H](C)c1ccc(-c2ccccc2)c(F)c1.Cl [B-1-2, 2-(diethylamino)ethyl (S)-2-(2-fluoro-4-biphenyl)propionate•HCl salt]",Purity,[1]; 3 month,98.6 ± 0.1
same,Purity,[1]; Day 0,98.7 ± 0.2
"CCN(CC)CCOC(=O)[C@H](C)c1ccc(-c2ccccc2)c(F)c1.Cl [B-1-3, 2-(diethylamino)ethyl (R)-2-(2-fluoro-4-biphenyl)propionate•HCl salt]",Purity,[1]; 18 month,98.1 ± 0.2
same,Purity,[1]; 24 month,98.0 ± 0.1
H-Ala-Pro-Gly-Pro-Arg(NO2)—OCH2CH3•HCl (H-APGP[Arg(NO2)]-OEt; also: HCl salt),pH at which the solution is stable,[2]; 5% solution in 25% ethanol at 25° C.,3-6
same,Time the solution can be stored at room temperature,"[2]; 5% solution in 25% ethanol, pH 3-6",about 3 months
same,Purity at Day 30,[3]; 0.01 wt %,55.6%
same,Purity at Day 90,[3]; 0.01 wt %,21.3%
same,Purity at Day 180,[3]; 0.01 wt %,0%
same,Purity at day 0,[3]; 0.01 wt %,98.3%
same,Purity at Day 30,[3]; 0.1 wt %,65.7%
same,Purity at Day 90,[3]; 0.1 wt %,30.2%
same,Purity at Day 180,[3]; 0.1 wt %,8.6%
same,Purity at day 0,[3]; 0.1 wt %,98.4%
same,Purity at Day 30,[3]; 1 wt %,91.3%
same,Purity at Day 90,[3]; 1 wt %,75.9%
same,Purity at Day 180,[3]; 1 wt %,56.6%
same,Purity at day 0,[3]; 1 wt %,98.5%
same,Purity at Day 30,[3]; 3 wt %,96.8%
same,Purity at Day 90,[3]; 3 wt %,92.1%
same,Purity at Day 180,[3]; 3 wt %,85.8%
same,Purity at day 0,[3]; 3 wt %,98.8%
same,Purity at Day 30,[3]; 5 wt %,97.1%
same,Purity at Day 90,[3]; 5 wt %,94.4%
same,Purity at Day 180,[3]; 5 wt %,89.7%
same,Purity at day 0,[3]; 5 wt %,98.9%
same,Purity at Day 30,[3]; 7 wt %,97.5%
same,Purity at Day 90,[3]; 7 wt %,95.0%
same,Purity at Day 180,[3]; 7 wt %,91.3%
same,Purity at day 0,[3]; 7 wt %,98.9%
same,Purity at Day 30,[3]; 8 wt %,97.6%
same,Purity at Day 90,[3]; 8 wt %,95.1%
same,Purity at Day 180,[3]; 8 wt %,91.4%
same,Purity at day 0,[3]; 8 wt %,98.8%
same,Purity at Day 30,[3]; 10 wt %,97.6%
same,Purity at Day 90,[3]; 10 wt %,95.2%
same,Purity at Day 180,[3]; 10 wt %,91.5%
same,Purity at day 0,[3]; 10 wt %,98.9%
same,Purity at Day 30,[3]; 15 wt %,97.6%
same,Purity at Day 90,[3]; 15 wt %,95.0%
same,Purity at Day 180,[3]; 15 wt %,91.4%
same,Purity at day 0,[3]; 15 wt %,98.8%
same,Purity at Day 30,[3]; 20 wt %,97.5%
same,Purity at Day 90,[3]; 20 wt %,95.1%
same,Purity at Day 180,[3]; 20 wt %,91.5%
same,Purity at day 0,[3]; 20 wt %,98.9%
same,Purity at Day 30,[3]; 30 wt %,97.6%
same,Purity at Day 90,[3]; 30 wt %,95.1%
same,Purity at Day 180,[3]; 30 wt %,91.7%
same,Purity at day 0,[3]; 30 wt %,98.9%
same,Purity at Day 30,[3]; 50 wt %,97.5%
same,Purity at Day 90,[3]; 50 wt %,95.2%
same,Purity at Day 180,[3]; 50 wt %,91.6%
same,Purity at day 0,[3]; 50 wt %,98.8%
H-Val-Pro-Gly-Pro-Arg(NO2)—OCH(CH3)2•HCl salt (H-VPGP[Arg(NO2)]-OiPr; also: HCl salt),Purity(%) at day 1,[2]; [4],98.6 ± 0.2%
same,Purity(%) at day 30,[2]; [4],98.1 ± 0.2%
same,Purity(%) at day 90,[2]; [4],97.2 ± 0.1%
same,Purity(%) at day 180,[2]; [4],95.4 ± 0.1%
same,Purity(%) at day 360,[2]; [4],92.1 ± 0.2%
same,Purity(%) at day 1,[2]; [5],98.6 ± 0.2%
same,Purity(%) at day 30,[2]; [5],98.2 ± 0.1%
same,Purity(%) at day 90,[2]; [5],97.1 ± 0.2%
same,Purity(%) at day 180,[2]; [5],95.6 ± 0.2%
same,Purity(%) at day 360,[2]; [5],92.0 ± 0.2%
same,Purity(%) at day 1,[2]; [6],98.6 ± 0.2%
same,Purity(%) at day 30,[2]; [6],98.2 ± 0.2%
same,Purity(%) at day 90,[2]; [6],97.0 ± 0.1%
same,Purity(%) at day 180,[2]; [6],95.6 ± 0.2%
same,Purity(%) at day 360,[2]; [6],92.1 ± 0.2%
same,Purity(%) at day 1,[2]; [7],98.5 ± 0.2%
same,Purity(%) at day 30,[2]; [7],97.0 ± 0.2%
same,Purity(%) at day 90,[2]; [7],93.8 ± 0.1%
same,Purity(%) at day 180,[2]; [7],88.1 ± 0.2%
same,Purity(%) at day 360,[2]; [7],80.1 ± 0.3%
same,Purity(%) at day 1,[2]; [8],98.3 ± 0.2%
same,Purity(%) at day 30,[2]; [8],85.0 ± 0.2%
same,Purity(%) at day 90,[2]; [8],59.5 ± 0.2%
same,Purity(%) at day 180,[2]; [8],43.5 ± 0.3%
same,Purity(%) at day 360,[2]; [8],17.6 ± 0.3%
same,Purity(%) at day 1,[2]; [9],98.4 ± 0.2%
same,Purity(%) at day 30,[2]; [9],91.7 ± 0.2%
same,Purity(%) at day 90,[2]; [9],84.7 ± 0.3%
same,Purity(%) at day 180,[2]; [9],71.7 ± 0.3%
same,Purity(%) at day 360,[2]; [9],52.7 ± 0.3%
same,Purity(%) at day 1,[2]; [10],98.3 ± 0.3%
same,Purity(%) at day 30,[2]; [10],78.1 ± 0.4%
same,Purity(%) at day 90,[2]; [10],44.1 ± 0.4%
same,Purity(%) at day 180,[2]; [10],25.1 ± 0.4%
same,Purity(%) at day 360,[2]; [10],0%
same,Purity(%) at day 1,[2]; [11],98.0 ± 0.3%
same,Purity(%) at day 30,[2]; [11],56.3 ± 0.3%
same,Purity(%) at day 90,[2]; [11],32.3 ± 0.4%
same,Purity(%) at day 180,[2]; [11],3.9 ± 0.4%
same,Purity(%) at day 360,[2]; [11],0%
same,Purity(%) at day 1,"[2]; 25% ethanol, pH 3.0, 25° C.",98.5 ± 0.1%
same,Purity(%) at day 30,"[2]; 25% ethanol, pH 3.0, 25° C.",97.4 ± 0.2%
same,Purity(%) at day 90,"[2]; 25% ethanol, pH 3.0, 25° C.",94.7 ± 0.1%
same,Purity(%) at day 180,"[2]; 25% ethanol, pH 3.0, 25° C.",90.7 ± 0.2%
same,Purity(%) at day 360,"[2]; 25% ethanol, pH 3.0, 25° C.",82.7 ± 0.3%
